Consider one substance from patent US20160159920A1.

Where “and” joins values, the source holds several entries; their conditions need not be identical. Equal entries are not always repeated.

In the experiment the target is human Leptin receptor (LepR) (human) (UniProt P48357). Briefly: cell-based or functional assay.
human Leptin receptor (LepR) (human), sequence (P48357 22-1165): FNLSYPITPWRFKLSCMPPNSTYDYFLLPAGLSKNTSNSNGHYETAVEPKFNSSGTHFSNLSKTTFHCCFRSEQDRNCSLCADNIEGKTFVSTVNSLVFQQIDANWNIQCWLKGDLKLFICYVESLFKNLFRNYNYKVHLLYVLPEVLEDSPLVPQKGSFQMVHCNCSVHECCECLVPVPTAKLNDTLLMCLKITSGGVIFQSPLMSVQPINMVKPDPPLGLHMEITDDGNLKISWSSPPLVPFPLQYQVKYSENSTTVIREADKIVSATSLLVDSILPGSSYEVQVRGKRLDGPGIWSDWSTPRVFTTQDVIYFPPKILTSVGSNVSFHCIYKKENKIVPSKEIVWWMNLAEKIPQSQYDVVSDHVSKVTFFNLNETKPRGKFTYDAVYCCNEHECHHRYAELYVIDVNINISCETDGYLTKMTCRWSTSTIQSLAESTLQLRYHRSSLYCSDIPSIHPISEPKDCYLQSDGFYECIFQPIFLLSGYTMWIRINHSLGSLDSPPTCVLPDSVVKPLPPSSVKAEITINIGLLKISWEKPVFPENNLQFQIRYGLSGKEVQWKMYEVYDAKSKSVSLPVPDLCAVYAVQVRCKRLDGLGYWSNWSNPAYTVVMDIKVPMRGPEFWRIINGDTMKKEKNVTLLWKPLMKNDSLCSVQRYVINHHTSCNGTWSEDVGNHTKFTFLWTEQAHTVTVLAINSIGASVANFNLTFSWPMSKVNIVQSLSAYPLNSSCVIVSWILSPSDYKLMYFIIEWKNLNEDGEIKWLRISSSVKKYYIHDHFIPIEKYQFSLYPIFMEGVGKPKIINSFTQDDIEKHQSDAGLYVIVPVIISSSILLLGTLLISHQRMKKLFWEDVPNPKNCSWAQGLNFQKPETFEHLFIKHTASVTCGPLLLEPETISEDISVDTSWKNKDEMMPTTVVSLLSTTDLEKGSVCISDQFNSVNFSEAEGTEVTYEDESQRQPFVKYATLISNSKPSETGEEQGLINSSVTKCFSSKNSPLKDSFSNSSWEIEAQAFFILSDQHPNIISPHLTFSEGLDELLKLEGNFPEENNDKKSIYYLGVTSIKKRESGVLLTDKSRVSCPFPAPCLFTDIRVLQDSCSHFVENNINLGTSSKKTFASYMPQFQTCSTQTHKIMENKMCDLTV

As to “hLeptin (SEQ ID NO: 238) (from UniProt P41159 22-167) (ligand)”, the EC50, AlamarBlue proliferation of Baf3 stable cells overexpressing LepR was 129 ρM and 58.2 ρM.
